According to patent US20230265151A1, “GIP/GLP1 CO-AGONIST COMPOUNDS” (priority 2020, published 2023):
Where a chain is given by its changes, count along the chain named. *1 amine or outer side, *2 acyl side, *3 side chain or, on linkers, in order; H or OH if unused. Where no end group is shown, it is not given here. Side-chain parts run from the residue outwards. [ ]: non-standard residue; d: D form. The star is where a group is joined. Decanoyl(10-(4-HOOC-PhO)) = O=C(O)c1ccc(OCCCCCCCCCC(=O)*)cc1; αMePhe(2-F) = C[C@](N)(Cc1ccccc1F)C(=O)O; γGlu = O=C(O)[C@H](CCC(=O)[*:2])N[*:1]; αMeY = C[C@](N)(Cc1ccc(O)cc1)C(=O)O; αMeL = CC(C)C[C@](C)(N)C(=O)O; Nle = CCCC[C@H](N)C(=O)O; Orn = NCCC[C@H](N)C(=O)O; AEEA = NCCOCCOCC(=O)O; Aib = CC(C)(N)C(=O)O

T1: human GIP receptor (human, UniProt P48546 22-466)
T1 sequence (looked up): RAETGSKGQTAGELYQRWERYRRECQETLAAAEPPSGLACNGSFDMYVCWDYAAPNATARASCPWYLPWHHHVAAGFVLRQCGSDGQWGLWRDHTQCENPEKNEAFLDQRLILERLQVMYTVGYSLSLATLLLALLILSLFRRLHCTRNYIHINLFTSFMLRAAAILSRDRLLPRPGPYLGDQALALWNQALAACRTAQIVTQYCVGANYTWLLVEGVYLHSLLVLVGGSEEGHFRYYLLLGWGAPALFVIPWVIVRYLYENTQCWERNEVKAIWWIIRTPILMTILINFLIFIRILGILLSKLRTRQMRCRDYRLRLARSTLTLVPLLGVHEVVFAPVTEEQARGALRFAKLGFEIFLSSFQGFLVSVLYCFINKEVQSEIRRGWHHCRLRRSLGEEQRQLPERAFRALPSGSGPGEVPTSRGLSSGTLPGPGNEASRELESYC

B1: Example 291 (peptide)
peptide: YXEGTXTSDXSIXLDXKAQXEFIXXLIEGGPSSGAPPPSK
modifications: Aib2, αMeF(2F)6, OMeY10, αMeL13, Orn16, Aib20, D-Glu24, αMeY25; K17 and K40: AEEA2-(γ-Glu)-CO-(CH2)10-CH3; C-terminal NH2
B2: Example 333 (peptide)
peptide: Y[Aib]EGT[αMePhe(2-F)]TSD[Nle]SI[αMeL]LD[Orn]IAQ[Aib]K([AEEA-AEEA-γGlu-Decanoyl(10-(4-HOOC-PhO))])FI[dE][αMeY]LIK([AEEA-AEEA-γGlu-Decanoyl(10-(4-HOOC-PhO))])GGPSSGAPPPS-NH2
modifications: N-terminus assumed
SMILES: CCCC[C@H](NC(=O)[C@H](CC(=O)O)NC(=O)[C@H](CO)NC(=O)[C@@H](NC(=O)[C@](C)(Cc1ccccc1F)NC(=O)[C@@H](NC(=O)CNC(=O)[C@H](CCC(=O)O)NC(=O)C(C)(C)NC(=O)[C@@H](N)Cc1ccc(O)cc1)[C@@H](C)O)[C@@H](C)O)C(=O)N[C@@H](CO)C(=O)N[C@H](C(=O)N[C@@](C)(CC(C)C)C(=O)N[C@@H](CC(C)C)C(=O)N[C@@H](CC(=O)O)C(=O)N[C@@H](CCCN)C(=O)N[C@H](C(=O)N[C@@H](C)C(=O)N[C@@H](CCC(N)=O)C(=O)NC(C)(C)C(=O)N[C@@H](CCCCNC(=O)COCCOCCNC(=O)COCCOCCNC(=O)CC[C@H](NC(=O)CCCCCCCCCOc1ccc(C(=O)O)cc1)C(=O)O)C(=O)N[C@@H](Cc1ccccc1)C(=O)N[C@H](C(=O)N[C@H](CCC(=O)O)C(=O)N[C@@](C)(Cc1ccc(O)cc1)C(=O)N[C@@H](CC(C)C)C(=O)N[C@H](C(=O)N[C@@H](CCCCNC(=O)COCCOCCNC(=O)COCCOCCNC(=O)CC[C@H](NC(=O)CCCCCCCCCOc1ccc(C(=O)O)cc1)C(=O)O)C(=O)NCC(=O)NCC(=O)N1CCC[C@H]1C(=O)N[C@@H](CO)C(=O)N[C@@H](CO)C(=O)NCC(=O)N[C@@H](C)C(=O)N1CCC[C@H]1C(=O)N1CCC[C@H]1C(=O)N1CCC[C@H]1C(=O)N[C@@H](CO)C(N)=O)[C@@H](C)CC)[C@@H](C)CC)[C@@H](C)CC)[C@@H](C)CC
B3: Example 310 (peptide)
peptide: YXEGTXTSDXSIXLDXIAQXEFIKXLIKGGPSSGAPPPS
modifications: Aib2, αMeF(2F)6, hTyr10, αMeL13, Orn16, Aib20, αMeY25; K24 and K28: AEEA2-(γ-Glu)-(10-(4-carboxyphenoxy)decanoyl); C-terminal NH2
B4: Example 335 (peptide)
peptide: B3 peptide with I17K, K24X
modifications: Aib2, αMeF(2F)6, hTyr10, αMeL13, Orn16, Aib20, D-Glu24, αMeY25; K17 and K28: AEEA2-(γ-Glu)-CO-(CH2)10-CH3; C-terminal NH2
B5: Example 321 (peptide)
peptide: B3 peptide with I17K, E21K, K24X, K28E
modifications: Aib2, αMeF(2F)6, Nle10, αMeL13, Orn16, Aib20, D-Glu24, αMeY25; K17 and K21: AEEA2-(γ-Glu)-(10-(4-carboxyphenoxy)decanoyl); C-terminal NH2
B6: Example 320 (peptide)
peptide: B3 peptide with I17K, E21K, K24X, K28E
modifications: Aib2, αMeF(2F)6, hTyr10, αMeL13, Orn16, Aib20, D-Glu24, αMeY25; K17 and K21: AEEA2-(γ-Glu)-(10-(4-carboxyphenoxy)decanoyl); C-terminal NH2
B7: Example 327 (peptide)
peptide: B3 peptide with I17K, K24X
modifications: Aib2, αMeF(2F)6, hTyr10, αMeL13, Orn16, Aib20, D-Glu24, αMeY25; K17 and K28: AEEA2-(γ-Glu)-(10-(4-carboxyphenoxy)decanoyl); C-terminal NH2
B8: Example 332 (peptide)
peptide: B3 peptide with E21K, K24X
modifications: Aib2, αMeF(2F)6, hTyr10, αMeL13, Orn16, Aib20, D-Glu24, αMeY25; K21 and K28: AEEA2-(γ-Glu)-(10-(4-carboxyphenoxy)decanoyl); C-terminal NH2
B9: Example 323 (peptide)
peptide: B3 peptide with I17K, E21K, K24X, K28E
modifications: Aib2, αMeF(2F)6, hTyr10, αMeL13, Orn16, Aib20, D-Glu24, αMeY25; K17 and K21: AEEA2-(γ-Glu)-CO-(CH2)10-CH3; C-terminal NH2
B10: Example 328 (peptide)
peptide: B3 peptide with I17K, K24X
modifications: Aib2, αMeF(2F)6, Nle10, αMeL13, Orn16, Aib20, D-Glu24, αMeY25; K17 and K28: AEEA2-(γ-Glu)-(10-(4-carboxyphenoxy)decanoyl); C-terminal NH2

target: T1, human GIP receptor; assay: cell-based or functional assay

| Binder | cAMP EC50 [nM] |
| --- | --- |
| B1 | 0.012 |
| Y[Aib]EGT[αMePhe(2-F)]TSD[Nle]SI[αMeL]LD[Orn]IAQ[Aib]EFIK([AEEA-AEEA-γGlu-Decanoyl(10-(4-HOOC-PhO))])[αMeY]LIK([AEEA-AEEA-γGlu-Decanoyl(10-(4-HOOC-PhO))])GGPSSGAPPPS-NH2 [Example 314] | 0.0216 |
| B2 | 0.0062 |
| B3 | 0.025 |
| B4 | 0.00871 |
| B5 | 0.0107 |
| B6 | 0.0144 |
| B7 | 0.018 |
| B8 | 0.0109 |
| B9 | 0.00793 |
| B10 | 0.00973 |

target: human GLP-1 receptor (human, UniProt P43220 24-463); assay: cell-based or functional assay

| Binder | cAMP EC50 [nM] |
| --- | --- |
| B1 | 0.207 |
| Y[Aib]EGT[αMePhe(2-F)]TSD[Nle]SI[αMeL]LD[Orn]IAQ[Aib]EFIK([AEEA-AEEA-γGlu-Decanoyl(10-(4-HOOC-PhO))])[αMeY]LIK([AEEA-AEEA-γGlu-Decanoyl(10-(4-HOOC-PhO))])GGPSSGAPPPS-NH2 [Example 314] | 0.673 |
| B2 | 0.388 |
| B3 | 0.347 |
| B4 | 0.175 |
| B5 | 0.295 |
| B6 | 0.246 |
| B7 | 0.211 |
| B8 | 0.263 |
| B9 | 0.203 |
| B10 | 0.405 |

target: human glucagon receptor (human, UniProt P47871 26-477); assay: cell-based or functional assay

| Binder | cAMP EC50 [nM] |
| --- | --- |
| B1 | > 9950 |
| Y[Aib]EGT[αMePhe(2-F)]TSD[Nle]SI[αMeL]LD[Orn]IAQ[Aib]EFIK([AEEA-AEEA-γGlu-Decanoyl(10-(4-HOOC-PhO))])[αMeY]LIK([AEEA-AEEA-γGlu-Decanoyl(10-(4-HOOC-PhO))])GGPSSGAPPPS-NH2 [Example 314] | > 9950 |
| B2 | > 9950 |
| B3 | > 9950 |
| B4 | > 9950 |
| B5 | > 9950 |
| B6 | > 9950 |
| B7 | > 9950 |
| B8 | > 9950 |
| B9 | > 9950 |
| B10 | > 9950 |
